Laboratory results from PMC10172501, “Heparanase-2 protein and peptides have a protective effect on experimental glomerulonephritis and diabetic nephropathy” (Frontiers in Pharmacology, 2023).
“Also recorded” adds a separate entry of the source. Values belong to the molecule of their own block, whether it stands above or below them.

Legend:
[1] = target: T1, recombinant active human HPSE1 (Homo sapiens, UniProt Q9Y251); test: HPSE1 activity assay (inhibition of HPSE1 activity; commercial kit and in-house HS-coated plate assay); type: biochemical; conditions: for inhibition of HPSE1 activity, first screening experiment of all 30 HPSE2 peptides: data not shown, recombinant HPSE1
T1 construct: recombinant active human HPSE1; purchased Bio-techne 7570-GH-005
T1 sequence (Q9Y251 158-543 limits assumed): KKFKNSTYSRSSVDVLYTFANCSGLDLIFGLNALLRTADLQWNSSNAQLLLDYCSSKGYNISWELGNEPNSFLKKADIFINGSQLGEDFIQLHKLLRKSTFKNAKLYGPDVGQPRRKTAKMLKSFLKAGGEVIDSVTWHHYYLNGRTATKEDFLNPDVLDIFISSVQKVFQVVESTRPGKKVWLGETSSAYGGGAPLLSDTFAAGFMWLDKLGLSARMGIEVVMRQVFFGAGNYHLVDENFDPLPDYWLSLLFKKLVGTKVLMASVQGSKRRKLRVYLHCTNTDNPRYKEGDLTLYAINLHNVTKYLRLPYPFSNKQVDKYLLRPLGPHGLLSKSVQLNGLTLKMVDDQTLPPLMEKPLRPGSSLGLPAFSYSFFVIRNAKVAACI
T1 sequence (Q9Y251 36-109 limits assumed): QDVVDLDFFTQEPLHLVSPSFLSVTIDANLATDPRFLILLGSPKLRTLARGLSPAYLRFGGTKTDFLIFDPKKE
Protocol: The inhibition of HPSE1 activity by HPSE2 protein and peptides was determined by the commercially available HPSE1 assay kit and an in-house developed HPSE1 activity assay, which was optimized by the use of recombinant active human HPSE1 (Bio-techne, Abingdon, United Kingdom, Cat#7570-GH-005). The in-house developed activity assay was performed as described previously ([Buijsers et al., 2020]). In short, Nunc maxisorp flat bottom 96 plates (Thermo scientific, Breda, Netherlands) were coated with 10 μg/mL heparan sulfate from bovine kidney (HSBK) (Sigma-Aldrich, Zwijndrecht, Netherlands) in optimized HS coating buffer, overnight in a humidified chamber at RT. Subsequently, plates were blocked for minimal 2 h with 1% bacto-gelatin (Difco laboratories, Detroit, Michigan, United States) in PBS at RT whereupon HPSE1 inhibitors were added to the plate with a standard amount of recombinant HPSE1 in HPSE1 buffer. Remaining HSBK was detected with primary mouse […] IgM HS antibody JM403 (Amsbio, Abingdon, United Kingdom, cat. No. #370730-S, RRID: AB_10890960, 1 μg/mL in PBST) for 1 h at RT. Subsequently, plates were incubated with secondary goat anti-mouse IgM HRP antibody (Southern Biotech, Uden, Netherlands, cat. No. #1020–05, RRID: AB_2794201, dilution 1:10,000 in PBST) for 1 h at RT. Finally, 3,3′,5,5′-tetramethylbenzidine (TMB) substrate (Invitrogen, Breda, Netherlands) was added and reaction was stopped by addition of 2 M sulfuric acid, and absorbance was measured at 450 nm.

[2] = tested on: HPSE1; conditions: ref Simeonovic et al., 2013; cited from earlier work
Description: Other HPSE1 inhibitors have been tested both in vitro and in vivo for their application in glomerular diseases as well. Administration of HPSE1 substrates, such as soluble HS, heparin, and low-molecular-weight heparins, all comprise the potential to reduce albuminuria. One example of such class of drugs is sulodexide, which is a highly purified mixture that consists for 80% of low-molecular-weight heparin and for 20% of dermatan sulfate ([Poplawska et al., 1997]).

[3] = tested on: STZ-induced diabetic nephropathy in wt DBA/2J mice; test: Streptozotocin (STZ)-induced type 1 diabetic nephropathy mouse model; type: in vivo
Protocol: Experimental streptozotocin (STZ)-induced type 1 diabetes was induced in six-to eight-week-old wt DBA/2J mice (Charles River, Germany). Mice were first fasted for 4 h whereafter the mice were injected i. p. with 50 mg/kg STZ (Sigma-Aldrich Chemie, Zwijndrecht, Netherlands) in 250 mM sodium citrate buffer (pH 4.5), whereas controls were injected with sodium citrate buffer alone for 5 consecutive days. Blood glucose levels were measured twice a week using the ACCU-CHEK Aviva Blood Glucose Meter (Roche Diagnostics, Almere, Netherlands) to monitor that blood glucose levels would not raise above 25 mmol/L. Mice were implanted under the skin half an insulin pellet (LinShin Canada, Toronto, Canada) when their blood glucose level did raise above 25 mmol/L. The mice were treated with HPSE2 protein via continuous s. c infusion with an osmotic mini pump 8 weeks after the final injection with STZ for a duration of 4 weeks. Mice were sacrificed 12 weeks after induction of diabetes.
(§1) Kidneys were collected and snap frozen in liquid nitrogen and urine was collected after 18 h housing in metabolic cages upon termination. Urinary albumin was measured by radial immunodiffusion (Mancini) as described previously ([Garsen et al., 2016a]). Blood urea nitrogen (BUN) and urinary/plasma creatinine concentrations were determined routinely in our clinical diagnostic facility.
(§2) RNA was isolated from the kidney cortex using RNeasy mini kit (Qiagen) and 1 µg of RNA was reverse transcribed into cDNA using the Transcription First Strand cDNA synthesis kit (Roche, Woerden, Netherlands) according to manufacturer’s instructions. Quantitative PCR was performed with SYBR Green (Roche, Woerden, Netherlands) on a CFX 96 C1000 Thermal Cycler (Bio-rad, Lunteren, Netherlands) to determine expression levels. Data was analysed using glyceraldehyde-3-phosphate dehydrogenase (GAPDH) as housekeeping gene and by making use of the delta-delta CT method.

[4] = tested on: mice induced with LPS; conditions: LPS co-injected with protein compared to LPS alone, upon 2 h; ref Kiyan et al., 2019; cited from earlier work
Protocol: Since HPSE1 is also involved in inflammation ([Goodall et al., 2014]; [Lever et al., 2014]), the increased HPSE1 and TNF-α expression might be prevented if HPSE2 is administered concomitant with LPS at induction of experimental glomerulonephritis. This effect has been shown previously by Kiyan et al. in the CLP sepsis mouse model. They reported decreased plasma levels of IL-6 and TNF-α in mice induced with LPS co-injected with full-length HPSE2 protein compared to LPS alone already upon 2 h. Unfortunately, no assessment of cytokine or HPSE1 mRNA expression in the renal cortex or other tissues ...

[5] = tested on: LPS-induced glomerulonephritis in wt C57Bl/6J mice; test: LPS-induced glomerulonephritis mouse model; type: in vivo; conditions: for cortical IL-6 mRNA expression: Figure 5F, IL-6 not detectable in control mice
Protocol: Experimental LPS-induced glomerulonephritis was induced in eight-to twelve-week-old wt C57Bl/6J mice by an i. p. injection with 80 µg LPS (O111:B4; Sigma-Aldrich Chemie, Zwijndrecht, Netherlands) as described previously ([Garsen et al., 2016a]). The mice were treated with heparanase 2 (HPSE2) protein and an equal mix of HPSE2 peptides (Thermo Fisher Scientific, Breda, Netherlands) 381–410, 391–420, and 401–430, amino acids respectively, via repeated i. v injection with 12 h intervals starting 6 h after LPS injection. Mice were sacrificed 48 h after LPS injection.
as §1, §2

Molecule: GVVTTSAGGTNNLSDSYAAGFLWLNTLGML [HPSE2 peptide 381–410, HPSE2-derived peptide, AA region 381–410]
inhibition of HPSE1 activity, first screening experiment of all 30 HPSE2 peptides [1]: showed great promise as inhibitor of HPSE1 activity; also recorded: most effective

Molecule: PI-88
HPSE1 inhibition in animal models for glomerular diseases, such as DN [2]: effective HPSE1 inhibitor

inhibition of HPSE1 activity, first screening experiment of all 30 HPSE2 peptides ([1]; listed as 401–430): most effective
Molecule: FLWLNTLGMLANQGIDVVIRHSFFDHGYNH [HPSE2 peptide 401–430, HPSE2-derived peptide, AA region 401–430]
inhibition of HPSE1 activity, first screening experiment of all 30 HPSE2 peptides [1]: showed great promise as inhibitor of HPSE1 activity

B1: HPSE2 protein: His-tagged mouse heparanase-2 protein produced by in vitro translation in HeLa lysate; b60 values from Kiyan et al. concern their protein (protein, UniProt B2RY83 1-592, looked up)
chain: MRVLCAFPEAMASSSSRPPSCLALVALFLALLLHLSLSFHAGNRRPLPVDRATGLKEKTLILLDVSTKNPVRTVNENFLSLQLDPSIIHDGWLDFLSSKRLVTLARGLSPAFLRFGGKRTDFLQFQNLRNPAKSRGGPGPDYYLKNYEDDIVRSDVALDKQKGCKIAQHPDVMLELQREKASQMHLVLLKEQYSNTYSNLILTARSLDKLYNFADCSGLHLIFALNALRRNPNNSWNSSSALSLLKYSASKKYNISWELGNEPNNYRSIHGRAVNGSQLGKDYIQLKSLLQPIRVYSRASLYGPNIGRPRKNVIALLDGFMKVAGSTVDAVTWQHCYIDGRVVKVMDFLKTRLLDTLSDQIRKIQKVVNTYTPGKKIWLEGVVTTSAGGTNNLSDSYAAGFLWLNTLGMLANQGIDVVIRHSFFDHGYNHLVDQNFNPLPDYWLSLLYKRLIGPKVLAVHVAGLQRKPRPGRVIRDKLRIYAHCTNHHNHNYVRGSITLFIINLHRSRKKIKLAGTLRDKLVHQYLLQPYGQEGLKSKSVQLNGQPLVMVDDGTLPELKPRPLRAGRTLVIPPVTMGFYVVKNVNALACRYR
modifications: full-length His tag
notes: His-tagged mouse heparanase-2 protein produced by in vitro translation in HeLa lysate; b60 values from Kiyan et al. concern their protein
urinary albumin creatinine ratio ([3]; STZ 50 mg/kg i.p. 5 days, continuous s.c. infusion by osmotic mini pump from 8 weeks after STZ for 4 weeks, sacrificed at 12 weeks, n ≥ 5, Figure 6C): significantly ameliorated
cortical HPSE1 mRNA expression ([3]; STZ model, 12 weeks, qPCR, Figure 6D): unaltered
cortical TNF-α mRNA expression ([3]; STZ model, 12 weeks, qPCR, Figure 6E): unaltered
cortical IL-6 mRNA expression ([3]; STZ model, 12 weeks, qPCR, with versus without treatment, Figure 6F): did not show a significant difference
plasma levels of IL-6 [4]: decreased
plasma levels of TNF-α [4]: decreased
plasma creatinine levels ([5]; 80 µg LPS i.p., repeated i.v. injection at 12 h intervals starting 6 h after LPS, 48 h, n ≥ 4, Figure 5B): significantly ameliorated
urinary albumin creatinine ratio ([5]; 80 µg LPS i.p., repeated i.v. injection at 12 h intervals starting 6 h after LPS, 48 h, n ≥ 4, Figure 5C): significantly ameliorated; also recorded: dose response inhibitory effect
blood urea nitrogen (BUN) ([5]; 80 µg LPS i.p., repeated i.v. injection at 12 h intervals starting 6 h after LPS, sacrificed 48 h after LPS, mean ± SEM, n ≥ 4, Figure 5A): significantly ameliorated; also recorded: dose response inhibitory effect
cortical HPSE1 mRNA expression ([5]; LPS model, 2 days, qPCR, GAPDH housekeeping, Figure 5D): unaltered
cortical TNF-α mRNA expression ([5]; LPS model, 2 days, qPCR, Figure 5E): unaltered
cortical IL-6 mRNA expression ([5]; LPS model, 2 days, qPCR): decrease
cortical IL-6 mRNA expression ([5]; LPS model, 2 days, qPCR, listed as HPSE2): near-significantly decreased
dose response inhibition of recombinant human HPSE1 ([1]; Figure 4, HS from bovine kidney coated plates, remaining HS detected with JM403, absorbance 450 nm): dose-dependent inhibition of HPSE1 activity
